Data: the supplement of paper PMC10065799, “High-throughput profiling of sequence recognition by tyrosine kinases and SH2 domains using bacterial peptide display” (eLife, 2023)

Columns and labels:
AncSZ = assay: phosphorylation enrichment, bacterial display (enrichment ratio); higher = better substrate or ligand; peptides without Tyr show the background
EPHB1 = EPHB1 (UniProt P54762); assay: as above
EPHB2 = EPHB2 (UniProt P29323); assay: as above
FGFR1 = FGFR1 (UniProt P11362); assay: as above
Sequence of FGFR1 (P11362 whole entry, looked up): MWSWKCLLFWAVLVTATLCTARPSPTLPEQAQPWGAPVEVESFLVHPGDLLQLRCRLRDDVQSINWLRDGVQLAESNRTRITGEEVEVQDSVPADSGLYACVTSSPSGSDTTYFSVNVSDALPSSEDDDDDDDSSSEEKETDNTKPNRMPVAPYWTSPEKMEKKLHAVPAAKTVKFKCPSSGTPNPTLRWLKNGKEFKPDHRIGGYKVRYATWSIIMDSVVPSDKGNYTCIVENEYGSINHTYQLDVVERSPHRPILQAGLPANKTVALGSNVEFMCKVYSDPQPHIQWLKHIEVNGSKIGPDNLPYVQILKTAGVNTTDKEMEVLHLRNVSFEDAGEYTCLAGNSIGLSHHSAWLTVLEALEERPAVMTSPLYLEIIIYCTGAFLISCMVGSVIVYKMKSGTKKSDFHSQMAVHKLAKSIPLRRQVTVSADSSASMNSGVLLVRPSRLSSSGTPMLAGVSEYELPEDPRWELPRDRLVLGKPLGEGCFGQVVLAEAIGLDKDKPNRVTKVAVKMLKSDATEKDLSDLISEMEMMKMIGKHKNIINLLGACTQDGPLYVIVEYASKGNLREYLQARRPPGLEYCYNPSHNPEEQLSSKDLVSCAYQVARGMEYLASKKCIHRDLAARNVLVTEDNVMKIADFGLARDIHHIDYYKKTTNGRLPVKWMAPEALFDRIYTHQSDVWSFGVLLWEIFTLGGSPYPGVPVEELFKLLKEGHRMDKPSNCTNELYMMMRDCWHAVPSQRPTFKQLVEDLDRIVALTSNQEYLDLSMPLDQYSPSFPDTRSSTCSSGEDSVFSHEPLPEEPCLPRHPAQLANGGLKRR

FGFR3 = FGFR3 (UniProt P22607); assay: as above
Fer (mouse) = assay: as above
Fes = Fes (UniProt P07332); assay: as above
Sequence of Fes (P07332 whole entry, looked up): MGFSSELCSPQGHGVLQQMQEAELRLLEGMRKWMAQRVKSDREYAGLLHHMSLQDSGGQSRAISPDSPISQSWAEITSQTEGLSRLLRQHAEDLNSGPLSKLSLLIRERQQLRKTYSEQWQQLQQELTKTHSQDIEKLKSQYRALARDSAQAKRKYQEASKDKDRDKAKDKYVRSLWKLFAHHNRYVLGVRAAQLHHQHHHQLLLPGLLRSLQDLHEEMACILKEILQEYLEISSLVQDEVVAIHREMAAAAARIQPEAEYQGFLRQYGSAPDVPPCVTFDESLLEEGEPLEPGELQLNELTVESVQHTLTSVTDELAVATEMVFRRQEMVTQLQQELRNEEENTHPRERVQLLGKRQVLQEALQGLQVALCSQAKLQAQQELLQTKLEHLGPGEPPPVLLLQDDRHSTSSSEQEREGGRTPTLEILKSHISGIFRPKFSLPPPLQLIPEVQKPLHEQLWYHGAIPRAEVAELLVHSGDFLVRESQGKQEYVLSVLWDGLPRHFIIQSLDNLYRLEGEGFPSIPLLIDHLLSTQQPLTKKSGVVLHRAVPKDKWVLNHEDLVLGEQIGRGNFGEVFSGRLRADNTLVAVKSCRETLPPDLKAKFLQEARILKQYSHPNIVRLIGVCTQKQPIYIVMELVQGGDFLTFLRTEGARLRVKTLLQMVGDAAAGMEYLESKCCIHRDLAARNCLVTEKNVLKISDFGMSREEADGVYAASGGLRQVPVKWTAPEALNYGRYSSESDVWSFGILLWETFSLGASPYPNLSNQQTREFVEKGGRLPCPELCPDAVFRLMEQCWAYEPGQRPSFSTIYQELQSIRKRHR

Fyn = Fyn (UniProt P06241); assay: as above
Hck = Hck (UniProt P08631); assay: as above
Jak2 = Jak2 (UniProt O60674); assay: as above
MERTK = MERTK (UniProt Q12866); assay: as above
Sequence of MERTK (Q12866 whole entry, looked up): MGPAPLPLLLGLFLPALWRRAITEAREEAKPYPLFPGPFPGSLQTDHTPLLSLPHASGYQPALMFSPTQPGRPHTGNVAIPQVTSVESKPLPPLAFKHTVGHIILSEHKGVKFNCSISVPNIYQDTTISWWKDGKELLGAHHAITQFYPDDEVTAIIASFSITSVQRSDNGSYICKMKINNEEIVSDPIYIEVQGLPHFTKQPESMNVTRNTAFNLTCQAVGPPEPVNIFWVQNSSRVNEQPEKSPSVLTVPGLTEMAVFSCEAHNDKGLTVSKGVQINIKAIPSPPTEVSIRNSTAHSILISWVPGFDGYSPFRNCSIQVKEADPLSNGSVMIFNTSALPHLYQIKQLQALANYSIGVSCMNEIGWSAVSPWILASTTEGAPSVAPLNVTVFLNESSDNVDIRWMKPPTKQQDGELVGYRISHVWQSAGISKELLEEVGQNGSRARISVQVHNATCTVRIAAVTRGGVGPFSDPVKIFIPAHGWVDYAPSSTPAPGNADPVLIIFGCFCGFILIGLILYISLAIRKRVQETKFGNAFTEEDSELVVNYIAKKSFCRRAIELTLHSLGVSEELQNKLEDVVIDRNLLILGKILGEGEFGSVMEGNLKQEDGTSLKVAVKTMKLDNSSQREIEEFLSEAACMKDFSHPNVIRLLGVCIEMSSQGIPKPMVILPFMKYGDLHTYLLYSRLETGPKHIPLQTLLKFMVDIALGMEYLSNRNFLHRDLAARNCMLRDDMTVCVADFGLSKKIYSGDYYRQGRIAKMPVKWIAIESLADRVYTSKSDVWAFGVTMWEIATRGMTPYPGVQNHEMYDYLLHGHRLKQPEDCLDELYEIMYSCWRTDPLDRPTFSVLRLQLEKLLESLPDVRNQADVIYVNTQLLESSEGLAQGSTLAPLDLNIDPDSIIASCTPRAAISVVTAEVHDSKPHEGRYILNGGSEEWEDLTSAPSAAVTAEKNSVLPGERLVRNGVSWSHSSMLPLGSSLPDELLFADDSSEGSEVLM

c-Abl (mouse) = assay: as above
c-Src = assay: as above
Grb2 SH2 = Grb2 SH2 (UniProt P62993); assay: SH2 binding enrichment of the phosphorylated peptide, bacterial display (enrichment ratio); higher = better substrate or ligand; peptides without Tyr show the background
Sequence of Grb2 SH2 (P62993 whole entry, looked up): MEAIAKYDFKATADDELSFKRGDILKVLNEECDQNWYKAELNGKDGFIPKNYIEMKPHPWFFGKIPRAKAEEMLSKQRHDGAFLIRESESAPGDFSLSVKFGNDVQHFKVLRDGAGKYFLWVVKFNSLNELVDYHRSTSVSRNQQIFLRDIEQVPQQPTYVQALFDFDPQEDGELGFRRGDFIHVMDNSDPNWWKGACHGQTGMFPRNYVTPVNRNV

SHP2-C SH2 = assay: as above
c-Src SH2 = assay: as above
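Throughout, for SH2 binding enrichment of the phosphorylated peptide, bacterial display: peptide library displayed on the E. coli surface as eCPX fusions, selected cells deep-sequenced, score is each peptide's frequency after selection divided by its frequency in the input.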
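Throughout, for phosphorylation enrichment, bacterial display: 11-residue human phosphosite peptides and single-mutation variants displayed on the E. coli surface, counted by deep sequencing, each peptide's frequency after selection divided by its frequency in the unselected input library; frequency after pTyr selection over input frequency; kinase dosed for 20-30% of maximal phosphorylation in three min.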

Sequence of EPHB1 (P54762 whole entry, looked up): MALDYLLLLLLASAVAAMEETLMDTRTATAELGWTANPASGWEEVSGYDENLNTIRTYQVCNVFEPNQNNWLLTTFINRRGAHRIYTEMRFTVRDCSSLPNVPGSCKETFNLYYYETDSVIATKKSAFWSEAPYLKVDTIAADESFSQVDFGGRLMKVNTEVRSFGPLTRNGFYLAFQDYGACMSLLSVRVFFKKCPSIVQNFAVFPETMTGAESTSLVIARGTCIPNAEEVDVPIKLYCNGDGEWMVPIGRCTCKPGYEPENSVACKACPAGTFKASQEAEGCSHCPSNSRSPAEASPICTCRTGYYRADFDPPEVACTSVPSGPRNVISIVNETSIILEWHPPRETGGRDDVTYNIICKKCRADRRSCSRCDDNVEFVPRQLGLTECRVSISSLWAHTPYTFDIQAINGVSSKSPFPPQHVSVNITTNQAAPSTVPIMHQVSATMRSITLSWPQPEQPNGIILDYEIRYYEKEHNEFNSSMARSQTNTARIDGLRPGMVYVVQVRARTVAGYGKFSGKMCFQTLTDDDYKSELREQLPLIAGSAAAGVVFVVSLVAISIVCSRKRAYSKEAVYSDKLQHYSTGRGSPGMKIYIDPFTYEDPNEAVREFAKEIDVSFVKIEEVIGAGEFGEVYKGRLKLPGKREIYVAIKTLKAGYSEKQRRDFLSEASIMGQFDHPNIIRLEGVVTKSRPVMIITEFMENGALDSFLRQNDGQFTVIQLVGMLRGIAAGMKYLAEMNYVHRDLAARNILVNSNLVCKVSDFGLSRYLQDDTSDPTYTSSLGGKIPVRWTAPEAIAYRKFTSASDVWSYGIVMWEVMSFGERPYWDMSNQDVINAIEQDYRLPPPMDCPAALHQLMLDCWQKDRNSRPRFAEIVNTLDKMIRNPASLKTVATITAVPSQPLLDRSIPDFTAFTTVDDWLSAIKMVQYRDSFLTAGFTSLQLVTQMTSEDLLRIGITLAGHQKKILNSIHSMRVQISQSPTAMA
Sequence of EPHB2 (P29323 whole entry, looked up): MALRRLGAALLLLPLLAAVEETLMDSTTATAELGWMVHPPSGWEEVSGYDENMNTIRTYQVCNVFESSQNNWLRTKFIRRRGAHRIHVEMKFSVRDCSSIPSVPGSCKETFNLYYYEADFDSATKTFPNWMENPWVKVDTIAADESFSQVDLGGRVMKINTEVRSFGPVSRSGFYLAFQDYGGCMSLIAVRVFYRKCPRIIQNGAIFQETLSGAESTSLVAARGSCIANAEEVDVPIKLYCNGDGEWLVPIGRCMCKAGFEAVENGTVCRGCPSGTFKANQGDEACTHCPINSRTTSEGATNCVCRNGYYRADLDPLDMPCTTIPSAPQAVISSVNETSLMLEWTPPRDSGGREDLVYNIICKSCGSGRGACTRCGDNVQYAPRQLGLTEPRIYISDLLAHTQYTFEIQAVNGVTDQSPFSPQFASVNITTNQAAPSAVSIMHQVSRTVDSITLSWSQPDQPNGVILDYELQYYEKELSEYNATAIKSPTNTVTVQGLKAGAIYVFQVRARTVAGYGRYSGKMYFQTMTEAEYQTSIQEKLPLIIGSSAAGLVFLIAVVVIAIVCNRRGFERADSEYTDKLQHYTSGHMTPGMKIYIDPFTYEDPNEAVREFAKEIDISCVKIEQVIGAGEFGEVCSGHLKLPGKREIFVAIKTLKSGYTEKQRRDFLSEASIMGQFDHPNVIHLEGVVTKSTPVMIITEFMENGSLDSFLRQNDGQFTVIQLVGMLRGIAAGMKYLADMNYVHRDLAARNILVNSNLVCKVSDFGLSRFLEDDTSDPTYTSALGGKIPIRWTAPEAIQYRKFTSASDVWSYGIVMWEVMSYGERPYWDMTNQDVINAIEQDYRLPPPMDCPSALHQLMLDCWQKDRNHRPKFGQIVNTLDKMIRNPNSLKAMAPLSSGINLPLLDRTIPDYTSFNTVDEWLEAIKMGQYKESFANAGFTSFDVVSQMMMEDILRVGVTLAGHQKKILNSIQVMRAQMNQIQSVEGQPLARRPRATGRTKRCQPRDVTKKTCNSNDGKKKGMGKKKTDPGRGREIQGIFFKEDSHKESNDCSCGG

| Sequence | phosphorylation enrichment (AncSZ) | phosphorylation enrichment (EPHB1) | phosphorylation enrichment (EPHB2) | phosphorylation enrichment (FGFR1) | phosphorylation enrichment (FGFR3) | phosphorylation enrichment (Fer (mouse)) | phosphorylation enrichment (Fes) | phosphorylation enrichment (Fyn) | phosphorylation enrichment (Hck) | phosphorylation enrichment (Jak2) | phosphorylation enrichment (MERTK) | phosphorylation enrichment (c-Abl (mouse)) | phosphorylation enrichment (c-Src) | SH2 binding enrichment (Grb2 SH2) | SH2 binding enrichment (SHP2-C SH2) | SH2 binding enrichment (c-Src SH2) |
| --- | --- | --- | --- | --- | --- | --- | --- | --- | --- | --- | --- | --- | --- | --- | --- | --- |
| TQKLAYVELQQ [CENPF_Y700_M701V] | 1.07 | 0.507 | 0.561 | 0.754 | 0.643 | 0.449 | 1 | 0.445 | 0.453 | 0.904 | 0.395 | 1.03 | 0.525 | 0.874 | 1.75 | 0.932 |
| TSKLSYLDPRI [TOP1_Y723_N722S] | 0.639 | 0.607 | 0.427 | 0.611 | 0.592 | 0.619 | 0.679 | 0.435 | 0.446 | 0.939 | 0.539 | 0.567 | 0.479 | 0.833 | 0.548 | 0.535 |
| TSNQEYLFLSM [FGFR1_Y766_D768Y_YF] | 1.21 | 0.765 | 0.721 | 5.2 | 3.32 | 0.557 | 1.09 | 0.574 | 0.572 | 1.06 | 0.469 | 0.813 | 0.488 | 0.877 | 0.563 | 0.358 |
| TSPKSCPSQKH [CAP2_Y316_Y316C] | 0.546 | 0.385 | 0.361 | 0.432 | 0.521 | 0.385 | 0.619 | 0.461 | 0.472 | 0.73 | 0.476 | 0.688 | 0.415 | 0.971 | 0.967 | 0.759 |
| TSSAVYMNLAS [GATAD2B_Y317_I316V] | 0.759 | 1.67 | 0.65 | 1.31 | 1.09 | 0.818 | 0.83 | 3.21 | 4.17 | 0.776 | 3.69 | 0.755 | 3.04 | 7.6 | 1.78 | 1.88 |
| TVQVAYYTMMM [SPATA17_Y83] | 1.91 | 3.4 | 1.76 | 10.8 | 9.18 | 3.74 | 1.85 | 2 | 2.19 | 4.2 | 9.05 | 1.36 | 4.49 | 0.782 | 0.852 | 1.25 |
| TVQVAYYTVMM [SPATA17_Y83_M86V] | 1.52 | 2.96 | 1.61 | 5.72 | 4.63 | 1.59 | 1.5 | 1.59 | 1.74 | 2.57 | 5.44 | 0.972 | 2.09 | 1.06 | 0.812 | 0.925 |
| VATRWYRSPEL [CDKL5_Y177] | 0.834 | 0.421 | 0.516 | 0.372 | 0.518 | 0.384 | 0.73 | 0.385 | 0.482 | 1 | 0.459 | 0.575 | 0.448 | 1.07 | 0.604 | 0.523 |
| VDGSVYKLHPS [GCK_Y413] | 0.581 | 0.467 | 0.543 | 0.536 | 0.583 | 0.642 | 0.655 | 2.64 | 1.03 | 0.735 | 0.424 | 0.614 | 3.28 | 0.755 | 1.01 | 0.488 |
| VDHFGYTKDDK [APOB_Y740] | 0.709 | 0.388 | 0.327 | 0.497 | 0.498 | 0.408 | 0.764 | 0.369 | 0.463 | 0.762 | 0.395 | 0.67 | 0.393 | 0.819 | 0.95 | 0.592 |
| VDSAHYKLLET [DTX3L_Y385] | 0.665 | 0.355 | 0.574 | 0.485 | 0.657 | 0.427 | 0.722 | 0.485 | 0.543 | 0.517 | 0.419 | 0.466 | 0.401 | 0.793 | 0.67 | 0.517 |
| VDSLRYIFPKL [EIF2B3_Y92_A87V_YF] | 0.704 | 0.449 | 0.38 | 0.486 | 0.51 | 0.463 | 0.9 | 0.372 | 0.385 | 0.822 | 0.531 | 0.85 | 0.526 | 1.01 | 1.27 | 0.752 |
| VDSNPYSRLMA [UBA5_Y53] | 0.608 | 0.465 | 0.488 | 0.468 | 0.533 | 1.04 | 0.657 | 0.756 | 1.72 | 0.47 | 0.524 | 0.469 | 1.16 | 0.699 | 3.31 | 1.57 |
| VDSNPYSRLVA [UBA5_Y53_M57V] | 0.743 | 0.55 | 0.584 | 0.465 | 0.559 | 0.785 | 0.64 | 0.553 | 1.21 | 0.611 | 0.445 | 0.648 | 1.02 | 1.38 | 3.46 | 1.7 |
| VDTLWYKFLKR [EPM2A_Y86_F84L] | 0.868 | 0.46 | 0.763 | 0.414 | 0.611 | 0.466 | 1.11 | 0.411 | 0.441 | 0.892 | 0.374 | 0.68 | 0.366 | 0.943 | 0.573 | 0.426 |
| VECQVYAEDPY [PCCA_Y401_R399Q] | 1.51 | 0.828 | 0.8 | 0.575 | 1.12 | 0.846 | 1.65 | 0.765 | 0.669 | 1.28 | 0.466 | 0.981 | 1.02 | 0.631 | 0.719 | 0.457 |
| VEDHFYEGGIG [TKT_Y564_YF] | 1.24 | 0.63 | 0.543 | 0.58 | 0.875 | 0.704 | 1.12 | 0.684 | 0.538 | 1.13 | 0.575 | 0.893 | 0.594 | 0.592 | 0.554 | 4.29 |
